Measured values reported in the DeepSol protein solubility set.

Test: soluble on expression in E. coli; label from the status in PepcDB or PDB records

Row | Sequence | soluble on expression in E. coli
1 | MAHHHHHHMGKYAVVVIGPAGSGKSTLCTVVAEHYATKGRSTHICNFDPAAEDLPYDPSIDIRELISLEDAMEGKGLGPNGGLVFCMEYLLGQGEVWLCDQLGDHEEDFIIVDMPGQLEVLSHIPAVPGFVRLLERSGFHVVVLFLLDALAATADAGKFVSGCTFALSCMVCFECPFMNVLTKCDLLPPAIREEALDHFCTCDFDYLNTKPLPERWREMVRTLAAVIFDFNLVTFRPMDNTDVAYVGNLCYLIDEALQVVDDAEVNDRDLPDASEAGEAVEDTMDWKHY | not soluble
2 | MAHHHHHHMPWATTLDLKATPPPTLCVTVSNTTDVLIIADMQVDFLTPGGSLHVKGGEALLDGINAVSSQLPFRYQVATQDWHPENHCSFVTHGGPWPPHCVQGSSGAQLHAGLHTHRINAVLRKGATQQADSYSAFVDDNGVSTGLAGLLHSIGARRVFVCGVAYDFCVFFTAMDARKNGFGVVLLEDLTAAVDDAAWSARAAELKEAGVVLLSSSALVAEGTET | soluble
3 | MGSDKIHHHHHHVDLSVMNRKRSESFNEVAEIYDAARPSYPSQLIEDVIEMANLTDSASILDIGTGTGKGTVPFAEKGYAIYCLEPGERLIAIASQNMRLYPKVIFETVTLEDWNLRPSAFDLAISAQAFHWVNREKGYPKVAQALKEKGYIAFFWNFSILPDTSIFQALKETFQKYVPTISNAKPSSVESLIKKRENWILNSFYFKNLVVKKYPWSINYDAEGYLGLLKTQTAYQKFTGTEKQDFSDAIIQILNAHGGYVTKPYLSVLFFAQKI | not soluble
4 | AIPLTLFYKFTYPIIVAFNKSTDLVLKLFGIKQVDEHEEAHTDEEIRMLVEESYKHGLIDKTELTFVDNVFDFSEKTVKEIMVPRTDMKCIFVEDSFDDIVGVTIDEHFTRYPVCEESKDNIIGLIHIKDLYKLKINKEDEKIESIIREIKFVPESMSISELFRMFQKERMQMAIVIDEYGGTFGLVTIEDILEEIVGEIQ | not soluble
5 | MGSDKIHHHHHHMQLGTGLFTCQQRPDDDRETSEIYDEMLELGEVIDNAGLDSAWVSEHHFLDDDYLSGVTPALGALAAVTDNIEIGSCIALAPLYDSIRLAEDIATVDQISGGRTTLGMAIGSNVSEFDAFGIPDDERAERLADAVDTLRGAWSDGPLDYEPEFHDISSDVTVTPKPAHDVPLMLGGASRPAVRRAARTADAWCAPSSLSVDGVRKRVEDIRNVRDDEDIEGDFQVYVLQHGFIGDSREDAWAQMRDGYLYIQRRYEEIFSGETVAELDEERKQELKEQAIFGTPDQVTAELESYREALGDDIHFIFRTYHPGTGTQEMAECIRRLGEEVQPKIS | not soluble
6 | MSLGATNRLACYSDPADHYSHRVRLVLAEKGVSVQLIDVDPAHLPRKLAEVNPYGSVPTLVDRDLALYESTVVMEYLEERYPHPPLMPVYPVARGNSRLLMHRIQRDWCALADTVLDPRSSEAARTEARKALRESLTGVSPLFSEFACFMSDEQSLVDCCLLPILWRLPVLGIELPRQAKPLLDYMERQFAREPFQASLSSVEREMRKLEGHHHHHH | soluble
7 | MGSDKIHHHHHHMSCLVLPLVSVGNIPQLSIDWLLNSQANEWEYLEALDSKYLVEFVGPLDRPEDGSDSLYKDADMKYSSALEVFYNKKRGLFAIQQRTPLVSVNYLNNFIVEIILPFLSKYNISEICIWDSLYAMEDENGVIVRPQEVYSLGEFYFDDEAELLSNLHLNDQESMVNNWLHFTPTSFQDKISVDQPIFKILFQILNASQRPKALRSIKYCSCLANEGDNSLDSQQFLQWIISQKVIKNAPPIVKFVRPISWQGAYGMADARDKFVDLYN | not soluble
8 | MDLHLTVDLKKTKTLIDLADQAHLIIEQTTKLPKKEAAILFLLIDNQLVALGLAEEKATYKEVSFDHSILLKPTWDTELAYLAQAFLDDAKESGLTLEATPTTVKIPKSAVATVTNYKETVTFILERFGYSLFKKPAPKKARPAKARHKWTKEVSQIPFYIDTRQSKATVFWQKRNEMLIKAGATMMPEAPLNKDGSVGFSARFGEKLRDERKGQFKDFVTTEDIVLKSVNEVGLFLYFAGTNSWLELVDENGKTLNEWTVVE | not soluble
9 | MGSDKIHHHHHHMKGGTEPVETSKMEKAAALLGGMIDLPTIPAVAIQVLSLLDEPEVDVDDVAELVLTDQVMAARVLKMVNSPLYRPATEITSLKGALVYLGLRHIREFILTCSIIQCSEGKDGVLGVKPFWEHSFGVGIVARLIAEKVGYHDTEKAYIGGIIHDIGEVFLSYYMRDEFQKIVDSISDKPHKLVEAEEEFLGTTHCEIGLCIARAWRFPDDYCEVIAHHHAPQEAKNAPRLTAIVNLADLFCNVRQLDYGGKAWVSFSLADEPAWGMLQGPGSRLSELDIERFCYELDDRVEEISELVGNIFKNG | not soluble
10 | MDIVTLKDFYASVLGKRVQETLCGQLNLCWPDLTGKRVMGFGYALPYLSALRMRAQQCLAFMPAGQGALPWPCADKVATALVFEEDLPLPDASIDCILLIHALEYTENSFETLNEIWRVLVPNGQLIVIVPNRSGLWARNACTPFGYGEPYSRQQIVRLFEKTHFVSGSIQEVVHYMPSSGSVSRFFSFFYEPVARHLLPYFGGLLICQAQKRVYQGLEHHHHHH | not soluble
11 | MGSDKIHHHHHHMLYADENSFDIGAKITKTKPVLLPIGAVEAHGPHLPLGTDNILASEYSAKIAAETSGFVLPVLPYGQVWSLQDFPGSLTLSNETVTKVVVEIGESLYKQGFRLFVPVSGHLGNMAALKDAARELYAKYPDMVILHIFYPNIQKLAMDVREGNANHHTYIHACEIETSLMLYLSPENADMSRAIDDPPILPIDADFTPTPWQNFTKTAVLGEATLATAEKGEYLIEKTLKTCVELIKLEQEKIRKSTEME | not soluble
12 | MQTPKPTLELLTCDAAYRENPTALFHQVCGDRPATLLLESADIDSKDDLKSLLLVDSALRITALGDTVTIQALSDNGASLLPLLDTALPAGVENDVLPAGRVLRFPPVSPLLDENARLCSLSVFDAFRLLQGVVNIPTQEREAMFFGGLFAYDLVAGFEALPHLEAGNNCPDYCFYLAETLMVIDHQKKSTRIQASLFTASDREKQRLNARLAYLSQQLTQPAPPLPVTPVPDMRCECNQSDDAFGAVVRQLQKAIRAGEIFQVVPSRRFSLPCPSPLAAYYVLKKSNPSPYMFFMQDNDFTLFGASPESSLKYDAASRQIEIYPIAGTRPRGRRADGTLDRDLDSRIELDMRTDHKELSEHLMLVDLARNDLARICTPGSRYVADLTKVDRYSYVMHLVSRVVGELRHDLDALHAYRACMNMGTLSGAPKVRAMQLIADAEGQRRGSYGGAVGYFTAHGDLDTCIVIRSALVENGIATVQAGAGIVLDSVPQSEADETRNKARAVLRAIATAHHAQETF | soluble
13 | MASVTLKNVCKAYGDVLISKNVDLEIQEGEFVVFVGPSGCGKSTLLRCIAGLEDITSGDLYIGEQRMNDVEPSKRGVGMVFQSYALYPHLNLYDNMSFGLKLSKADKSEIKKRVDHAAEILQLSHLLDRQPKALSGGQRQRVAIGRTLVSQPNVFLLDEPLSNLDAALRVQMRSEITKLQRKLGCTMIYVTHDQVEAMTMADKIVVLDAGFVSQVGKPLELYHYPQNRFVAGFIGSPKMNFMSVFIEGVEKDRVQVQLSNGTTFWIPVDGTTVTRGERMSLGIRPEHLVEAEHGDAKIEGKVMIVEKLGNETQVYMNLKGSDSDVIYRQPDTLDVETGDTLTIGIPAHRCHLFHSDGRACRRLHKEKGVDLPA | not soluble
14 | MGSDKIHHHHHHMSQSAITVDQVTVTYRNGHTALRDATFQVPGGSIAALVGVNGSGKSTLFKALMGFVHLAQGDITILQQSVNKALKKNLIAYVPQSEEVDWSFPVLVEDVVMMGRYGHMGWLRRPTAHDHACVDAALARVDMQEYRHRQIGELSGGQKKRVFLARAIAQDGQVILLDEPFTGVDVKTEARIIDLLRELRDEGRTMLVSTHNLGSVTEFCDYTVMIKGTVLASGPTETTFTAANLEQAFSGVLRHIALSGGEEHIITDDERPFISRRVASGGKSS | not soluble
15 | MKTTYNRWWKKKVWFGRKDMSYKVIVDSCGEFTPEMKADGGFEHVALGIQIEDTQWTDDDSLKQEELLLKIAESTSCAKTSCPSPERYMESYHCDAERIYVVTLSAELSGSYNSAVLGKNLYEEEYGEKQIHVFNSRSASVGETLIALKVQQCEKAGMTFEEVVESVECYIEEQHTYFVLENLDTLRKNGRLTGIKSLVAGALNIKPIMGSTPQGTICQKEKARGMKKALVKMADCVAADVVNAGDKILAIAHCNCEERAKEVQRLLKERFAVKSSFIVDTSGISTVYANDGGIIVVV | soluble
